The RNAGym collection of RNA variant scans (doi:10.1073/pnas.2313332121)
This sample holds only a part of the variants without activity.

B1: TPR 5TU (parent)
chain: GGAUCUUCUCGAUCUAACAAAAAAGACAAAUCUGCCACAAAGCUUGAGAGCAUCUUCGGAUGCAGAGGCGGCAGCCUUCGGUGGCGCGAUAGCGCCAACGUUCUCAACUAUGACACGCAAAACGCGUGCUCCGUUGAAUGGAGUUUAUCAUG

Variants of: B1
Assay: polymerase ribozyme fitness, log enrichment relative to wild type (log ratio); higher = more active; in vitro selection for triplet polymerase activity
How it was run: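 To select mutant libraries of each subunit of a heterodimeric triplet polymerase ribozyme, built by PCR and transcribed, each was annealed with a biotinylated primer, partner subunit and triplets, then incubated frozen at −7 °C. Extended constructs were gel-excised, captured on streptavidin beads and amplified by RT-PCR, in one round carried out in triplicate. Illumina sequencing of input and output libraries kept genotypes with ≥10 input reads and ≥1 read per output. Fitness is the base-2 logarithm of genotype enrichment relative to wild-type enrichment, from inverse-variance-weighted replicate averages.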

| Variant | polymerase ribozyme fitness (log ratio) |
| --- | --- |
| A20G A47C G48C G50C U56C C87A C95G U139A G141A | -4.1 |
| A20C C85A A97U | -3.02 |
| A19U A52C | -1.34 |
| A20C C99G | -1.06 |
| A20C U56A C75U | -0.244 |
| A19U A26U G46A C87A A91U G94A U127C G143C | ≤ -4.2 |
| A20C U56A A107U | -2.71 |
| A19U C85G A121G | -1.62 |
| A19G G83C | -1.11 |
| A19U A26C A30U C35U A41U G84A U135A | ≤ -4.2 |
| A20C A39U A106G C131U A138U | ≤ -4.2 |
| A20C C35U A97G | -0.284 |
| A19U U31C C51U | 0.159 |
| A19U G59A G83U C95A C132U G136U G141A | ≤ -4.2 |
| A19G C85G G117A A137G | -2.73 |
| A20C A73G C87G C114U G141A | ≤ -4.2 |
| A19U G25U C35A G65U A91U A120G G140A A142U | -4.19 |
| A19G U55A G68A G71A C103U | ≤ -4.2 |
| A19G A73G C85A | -1.82 |
| A19U A20U C35U G59C U77C C118U C123U G141A U151G | ≤ -4.2 |
| A20C G42C G50U G84A C99A | ≤ -4.2 |
| A20C G34A A47G U104G U130G A150G | ≤ -4.2 |
| A19G A47C C57A C96U U101G C123U U145A | -0.877 |
| A20C C93G | -3.89 |

| Variant | polymerase ribozyme fitness (log ratio) |
| --- | --- |
| A20C C93U | -1.41 |
| A19U C87U A121C A147U | 0.743 |
| A19U C95U | -0.543 |
| A20C U82A A150G | -0.662 |
| A19U A23C A29G G83C A97U C103G U139C | ≤ -4.2 |
| A19U A21U G86A C103U | -2.31 |
| A19G U56A G86A G141U | -1.64 |
| A19U U45A G83C | -3.67 |
| A19U G141A | 0.304 |
| A20C C32A A52G A91U G94A C99U A147U G152U | -3.97 |
| A20G A52G G58U C87U | -0.805 |
| A19U A30C C95G | ≤ -4.2 |
| A19G A49C C54A G68A C93A C95A C103U G124A | ≤ -4.2 |
| A19G C35A G42C G68C G92A | ≤ -4.2 |
| A19U G34U C51U U53C G81A G86U G92A C96U A98G | ≤ -4.2 |
| A20C G62A G86U | -2.06 |
| A19U U33A G84A G92C G94C | ≤ -4.2 |
| A20C U31G A40U | -0.279 |
| A19U G59C A89U G92C A121G | -2.25 |
| A19U A47C U55G C87U G92U U101C | -2.81 |
| A20C U31G A49C A52C U53C | ≤ -4.2 |
| A20C A24G | -4.02 |
| A19U A40U C54A A60G C96U | -2.61 |
| A20C A22U C51U | -0.386 |

| Variant | polymerase ribozyme fitness (log ratio) |
| --- | --- |
| A19G G42A A66C C85U A106U U148A | ≤ -4.2 |
| A19G G59U | -0.93 |
| A19U A49C C54A G62A A119G C125U U144A | ≤ -4.2 |
| A19G A97U | -0.98 |
| A19G A40U C57A U61A G100U G136U G141C | ≤ -4.2 |
| A19G C85A | -2.09 |
| A19U A40C G81C C96G | -1.25 |
| A20G A37G A106G A138C | -3.84 |
| A20C U31G U53A U55G A115C | -2.82 |
| A20C U53A | -2.16 |
| A19U C35U | -0.444 |
| A20G A30U G83A A110C U148C | ≤ -4.2 |
| A19U G59U G86A G136A | -2.01 |
| A19G A30G C38U C85G A89U U130G | ≤ -4.2 |
| A20C A23U C27A G58U C72A A89G C99A A107C | ≤ -4.2 |
| A19G G59U G84U C105G | -3.78 |
| A19G G83A A91C G94C C96G U134G | ≤ -4.2 |
| A20C U101G C149U | -1.64 |
| A19G A41C G42C A49C U90C U127A | ≤ -4.2 |
| A19G A47G G48A | -3.23 |
| A20C C76U C85U C95U C96U | -3.03 |
| A20C G59A G81C G86C | -3.14 |
| A20G A24G C51U C85U A120U C149G | ≤ -4.2 |
| A20C C118U | -0.906 |

| Variant | polymerase ribozyme fitness (log ratio) |
| --- | --- |
| A20C G48C G62A | -2.35 |
| A19U C69U G92C G126C | -1.04 |
| A19U A106G G143C | -2.4 |
| A19U U44G G50C A73G C76A G140A | ≤ -4.2 |
| A19U A47G U53G G67C C99U A142C A147C | ≤ -4.2 |
| A20G A40C A41G A49C C76G G88A C96U | ≤ -4.2 |
| A19U C87U G141U U146C | 0.666 |
| A19U C85G | -2.18 |
| A19U C85A | -1.33 |
| A19U G50A G71A A89G A137G | ≤ -4.2 |
| A19G C32A U56G C57U U82A | ≤ -4.2 |
| A20G A26U A39C G86C A150C | ≤ -4.2 |
| A19U U56A A60G U104G G152A | -2.82 |
| A19U A22C A40C C43G A66C C95A G141U G152A | -3.6 |
| A19G G50A G83C G86U C96U | ≤ -4.2 |
| A20C C63G G152A | -2.4 |
| A20C A47U C51U C105U U144A | -2.59 |
| A19U G48A C116G U127G | ≤ -4.2 |
| A19U C96U | -0.369 |
| A19U C96A | -0.531 |
| A20C G25C G34U C54A A91G A119U A122U G124U C125G | ≤ -4.2 |
| A19G G50A | -2.14 |
| A19U A21C | -0.908 |
| A20C G83U A89U A97U | -2.13 |

| Variant | polymerase ribozyme fitness (log ratio) |
| --- | --- |
| A19U U31C G46A C96U C131U U139G | -2.16 |
| A19G U33C A41C A91U C93A A97C | ≤ -4.2 |
| A19U G86C | -2.58 |
| A19U G86A | -2.04 |
| A19U A40C A91U C95G | ≤ -4.2 |
| A20G A29U C51G C87G | ≤ -4.2 |
| A19U C27U C36A G42C G86A G100C C118G | ≤ -4.2 |
| A20C C85U G86U C93A A119U A121G | -1.77 |
| A19G G42U G50U A52U C75U G88U G92C G143A | ≤ -4.2 |
| A19G C54G C96G C149U | -3.72 |
| A19U A28U A52G C105G G126C G141C U148A C149U A150C | ≤ -4.2 |
| A20C U144G | 0.273 |
| A19U U61A G86U A107G A115U G152U | ≤ -4.2 |
| A20C U56G G92U | -0.962 |
| A20C C36U C85G C103G | ≤ -4.2 |
| A20G A22C C93A | -3.38 |
| A19G G46C A107U A120C C129U | ≤ -4.2 |
| A20G A29U C51A A106C A113U | -4.2 |
| A19U A21U G94A | -1.09 |
| A19U A23G U90G | -3.99 |
| A19U A28C A40C A41C U44G C85A A113C | ≤ -4.2 |
| A20C U61G G112C | ≤ -4.2 |
| A19U C79A | ≤ -4.2 |
| A20G A21C U31C C103A U144G | -1.73 |

| Variant | polymerase ribozyme fitness (log ratio) |
| --- | --- |
| A19G C35U U53G C54A G71A U145C | -2.47 |
| A20G A28U G42C A49C C93G C103A | ≤ -4.2 |
| A19U C87G | -4.17 |
| A19U U55G G86U | -1.7 |
| A20C C36A | -4.06 |
| A19U A21G U45G U56A G92U | -1.94 |
| A19G G84C A115U A121G | -3.97 |
| A19U C51U G58C C85U A91U C114U C118U | ≤ -4.2 |
| A20C U33A C43U G88U G92A A115C G126A C132U A147C | ≤ -4.2 |
| A20C U55A G67C G124A A137U | ≤ -4.2 |
| A19U C123U | -0.609 |
| A20C G92A U101G G124A C129U | -3.24 |
| A19U C38A C54U C85A C108A | ≤ -4.2 |
| A19U A49G C57A A60U C116U | -2.27 |
| A19U A40G G124A | -4.11 |
| A19G C72G A89G | ≤ -4.2 |
| A19U A20C G59A A89U C95U G126C | -0.274 |
| A19G A98U A115U A120U | -2.62 |
| A20C A30G G50U C95G A147G | ≤ -4.2 |
| A20C A40G A52G C85A A98G | -4.01 |
| A20C U53A U55A | -2.52 |
| A19U A47C C93U | -1.1 |
| A20C A28U G48C G70A C87G A120G U135C | ≤ -4.2 |
| A19G C57U G67U G94A C105A | ≤ -4.2 |

| Variant | polymerase ribozyme fitness (log ratio) |
| --- | --- |
| A20C C85U A89G A106G | -2.07 |
| A19U C27A A91U G94U G126U G141A G143C | ≤ -4.2 |
| A19U A40G U101G | -3.45 |
| A19G C57G G84U | -2.3 |
| A19G U82G G94A C96U A97U G124U | -2.53 |
| A19G U109G U139C U144C U148C | -4.14 |
| A20C U55G C57U A120C | -0.73 |
| A20G A22U G141A | -1.8 |
| A19U C63U C96U C105G C116A | -2.98 |
| A19U G50U C51A C96U A119G | -3.91 |
| A20C A49G G81A C87G U104G A138C | ≤ -4.2 |
| A20C U53A C54A G59A G84A G124C | -2.39 |
| A19G C32A A40C U61A C93G A110G | ≤ -4.2 |
| A20C A29C C87G A122G G140U | ≤ -4.2 |
| A19G A28U A40C A60C G71U C75A G86U | ≤ -4.2 |
| A19G U44C U56A C57U C85U C95G | ≤ -4.2 |
| A19G C87G G92A U134A | ≤ -4.2 |
| A20C U61A C63U C85U | -1.55 |
| A20G A23C U144G | ≤ -4.2 |
| A19U C69G C96G U104G | -1.98 |
| A20C A47C A60G C85A G140U | ≤ -4.2 |
| A20C G25U C51A U77G G94C A115U G140C | ≤ -4.2 |
| A19G C85U G94U G141U | 0.14 |
